Test results from publication PMC4031514, “Lysine 27 Ubiquitination of the Mitochondrial Transport Protein Miro Is Dependent on Serine 65 of the Parkin Ubiquitin Ligase*” (The Journal of Biological Chemistry, 2014).

Molecular target: T1, GFP-TRAK1 (mouse, UniProt Q6PD31 1-939)
T1 construct: TRAK1, mouse; also called kinesin adaptor TRAK1
T1 sequence (looked up): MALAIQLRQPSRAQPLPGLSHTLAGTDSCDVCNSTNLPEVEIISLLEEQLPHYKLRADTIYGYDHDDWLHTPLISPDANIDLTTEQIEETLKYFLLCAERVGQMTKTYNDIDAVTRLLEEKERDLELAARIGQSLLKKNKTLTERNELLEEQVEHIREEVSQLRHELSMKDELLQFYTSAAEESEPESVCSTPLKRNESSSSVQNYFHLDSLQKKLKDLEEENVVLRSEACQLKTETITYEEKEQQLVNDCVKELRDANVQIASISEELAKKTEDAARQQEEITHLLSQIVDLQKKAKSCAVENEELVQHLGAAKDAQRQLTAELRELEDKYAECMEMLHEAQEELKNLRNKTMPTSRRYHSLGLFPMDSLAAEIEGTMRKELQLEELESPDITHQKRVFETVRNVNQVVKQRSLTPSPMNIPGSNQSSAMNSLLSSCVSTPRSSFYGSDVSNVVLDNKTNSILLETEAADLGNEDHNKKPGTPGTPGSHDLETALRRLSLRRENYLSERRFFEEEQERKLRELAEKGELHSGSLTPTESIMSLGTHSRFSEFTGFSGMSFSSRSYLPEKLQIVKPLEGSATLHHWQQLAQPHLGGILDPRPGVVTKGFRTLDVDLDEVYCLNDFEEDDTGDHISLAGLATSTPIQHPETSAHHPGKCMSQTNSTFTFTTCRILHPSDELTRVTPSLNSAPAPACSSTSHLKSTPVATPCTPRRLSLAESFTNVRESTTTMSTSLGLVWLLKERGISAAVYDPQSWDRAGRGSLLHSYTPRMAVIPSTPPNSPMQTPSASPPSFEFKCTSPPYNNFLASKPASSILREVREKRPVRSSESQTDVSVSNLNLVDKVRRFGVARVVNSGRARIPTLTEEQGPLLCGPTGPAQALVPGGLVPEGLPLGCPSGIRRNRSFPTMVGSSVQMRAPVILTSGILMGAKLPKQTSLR
Assay: co-IP; coimmunopurification of mycMiro1 and GFP-TRAK1 from transfected cells, untreated or treated with 10 uM FCCP, 1 h; GFP-TRAP beads per the methods; lysis in 50 mM Tris pH 7.4, 150 mM NaCl, 1 mM EDTA, 0.5% Triton X-100; western blot, densitometry
Settings: partners not purified

co-IP with FCCP relative to untreated control (1): 0.94 fold of control
B1: Myc-tagged Miro1 (natural protein, UniProt Q8IXI2 1-618, looked up)
chain: MKKDVRILLVGEPRVGKTSLIMSLVSEEFPEEVPPRAEEITIPADVTPERVPTHIVDYSEAEQSDEQLHQEISQANVICIVYAVNNKHSIDKVTSRWIPLINERTDKDSRLPLILVGNKSDLVEYSSMETILPIMNQYTEIETCVECSAKNLKNISELFYYAQKAVLHPTGPLYCPEEKEMKPACIKALTRIFKISDQDNDGTLNDAELNFFQRICFNTPLAPQALEDVKNVVRKHISDGVADSGLTLKGFLFLHTLFIQRGRHETTWTVLRRFGYDDDLDLTPEYLFPLLKIPPDCTTELNHHAYLFLQSTFDKHDLDRDCALSPDELKDLFKVFPYIPWGPDVNNTVCTNERGWITYQGFLSQWTLTTYLDVQRCLEYLGYLGYSILTEQESQASAVTVTRDKKIDLQKKQTQRNVFRCNVIGVKNCGKSGVLQALLGRNLMRQKKIREDHKSYYAINTVYVYGQEKYLLLHDISESEFLTEAEIICDVVCLVYDVSNPKSFEYCARIFKQHFMDSRIPCLIVAAKSDLHEVKQEYSISPTDFCRKHKMPPPQAFTCNTADAPSKDIFVKLTTMAMYPHVTQADLKSSTFWLRASFGATVFAVLGFAMYKALLKQR
notes: Miro1, outer mitochondrial membrane GTPase; also called mycMiro1
